By EC50 (read off the curve) is commonly meant the concentration that produces a half-maximal response. A higher EC50 (read off the curve) goes with lower potency in that assay.

From patent publication US20220340894A1 (CDR LIFE, published 2022) come the findings set out here.

The target in assay [1] is T1, MAGE-A4 peptide-HLA-A2 complex presented on cells (human).
T1 construct: whole, on cells; Used both for T2 cells pulsed with the peptide and for tumour cell lines that present it themselves; also called MAGE-A4 positive/HLA-A2 positive cells
As to the kind of experiment: flow cytometry on T2 cells pulsed with MAGE-A4 peptide; relative MFI = binding over peptide loading (BB7.2). The procedure: (§1) TAP-deficient T2 cells were pulsed with HLA-A2-restricted peptides (MAGE-A4 or control peptides) and incubated with MAGE-A4 binders followed by fluorophore-labeled specific detection antibodies and analysis by flow cytometry.
(§2) Briefly, T-B hybrid T2 cells were incubated with serum-free RPMI1640 medium containing MAGE-A4 or control peptides. […] Peptide loading efficiency was verified by using the ratio between median fluorescent intensity (MFI) of HLA-A2-binding antibody BB7.2 on peptide loaded T2 cells and MFI of unloaded T2 cells (>1). T2 cells were incubated with each of the specific antibodies followed by fluorophore-labeled detection antibodies (anti-kappa light chain or anti-Flag). The cells were fixed and fluorescence was measured by flow cytometry.

The target in assay [2] is T2, HLA-A2/MAGE-A4 complex (HLA-A*02:01 extracellular domain, human β2m, MAGE-A4 peptide 230-239) (human, UniProt P04439 25-299 at identity 0.94); P61769 21-119).
T2 construct: also called MAGE-A4/HLA-A2 complex; pMHC
As to the kind of experiment: direct ELISA, plate coated with HLA-A2/MAGE-A4 complex, OD450 nm (top panel, 'Binding to HLA-A2/MAGE-A4', M0700-M0709). The procedure:
(§3) All available hits were evaluated for their ability to bind MAGE-A4/HLA-A2 complex and a control peptide/HLA-A2 complex in a direct binding ELISA assay. […] Briefly, 96 well ELISA plates were coated with purified human MAGE-A4/HLA-A2 complex or control HLA-A2 complex. Serial dilutions of antibody molecules were added to the plate and detected by an anti-kappa light chain-HRP (Invitrogen) followed by goat anti-rabbit IgG(H+L) HRP (Southern Biotech). […] All tested molecules are rabbit-derived antibodies that are representative of antibodies identified from the nucleic acid libraries described herein.
For orientation: In an ELISA, binding on a coated surface is turned into a signal by an enzyme label.

For assay [3], the target named is T3, control peptide 1 (Ctrl.1, …) displayed by HLA-A2 on T2 cells (human).
T3 construct: whole, on cells
As to the kind of experiment: flow cytometry on T2 cells pulsed with control peptide 1; relative MFI = binding over peptide loading (BB7.2). The method, then:
as §1, §2

The target in assay [4] is T4, control peptide 2 (Ctrl.2, …) displayed by HLA-A2 on T2 cells (human).
T4 construct: whole, on cells
The assay is described as follows: flow cytometry on T2 cells pulsed with control peptide 2; relative MFI = binding over peptide loading (BB7.2). The method, then:
as §1, §2
A general note: Flow cytometry measures light scatter and fluorescence of single cells or particles in a stream.

The target in assay [5] is T4, control peptide 2 (Ctrl.2, …) displayed …. As to the kind of experiment: flow cytometry on T2 cells pulsed with control peptide 2; relative MFI = binding over peptide loading (BB7.2); antibody concentration not given. The method, then: as §1, §2
In assay [6] the target is T3, control peptide 1 (Ctrl.1, …) displayed …. As to the kind of experiment: flow cytometry on T2 cells pulsed with control peptide 1; relative MFI = binding over peptide loading (BB7.2); antibody concentration not given. The method, then: as §1, §2
Assay [7] concerns the target T2, HLA-A2/MAGE-A4 complex (HLA-A*02:01 …). As to the kind of experiment: direct ELISA, plate coated with HLA-A2/MAGE-A4 complex, OD450 nm (second panel, 'Binding to HLA-A2/MAGE-A4', M0710-M0766). The method, then: as §3
The target of assay [8] is T5, control peptide 3 (Ctrl.3, …) displayed by HLA-A2 on T2 cells (human).
T5 construct: whole, on cells
The assay is described as follows: flow cytometry on T2 cells pulsed with control peptide 3; relative MFI = binding over peptide loading (BB7.2); antibody concentration not given. The procedure:
as §1, §2

B1: M0709 (Fab, V domains shown)
VH: QSVKESGGRLVTPGTPLTLTCTVSGFSLSNYAMSWVRQAPGKGLEYIGIVSSGGTTYYASWAKGRFTISKTSTTVDLKITSPTTEDTATYFCAKDLYYGPTTYSAFNLWGQGTLVTVSS
VL: SELVLTQPQSVSGSLGQTVSISCKRARDNIEDYYVHWYQQHPGKTPTIVIHKDDQRPSGVPDRFSGSIDSTSNSASLTITGLLAEDEADYFCQSFDNDASPVFGGGTQLTVTG
Turning to B1, the binding result in assay [1], in assay [2], in assay [3] and in assay [4] was “binds” each time.

B2: M0763 (Fab, V domains shown)
VH: B1 VH
VL: SELVLTQPASVQVNLGQTVSLTCTADTLSRSYASWYQLKPGQAPVLLIYRDTSRPSGVPDRFSGSSSGNTATLTISGAQAGDEGDYVCATSDGSGSNFQLFGGGTQLTVTG
Consider B2, for which the binding result in assay [5] is reported as “no binding”; in assay [1], “binds”; in assay [6], “no binding”; in assay [7] it was “binds”; in assay [8] it was “no binding”.

B3: M0705 (Fab, V domains shown)
VH: QQQLVESGGRLVTPGTPLTLTCTASGIDLNSNAMSWVRQGPGKGLEWIGDIWSGGYTDYASWAKGRFTISKTSTTVDLKMTSLTAADTATYFCARDRLAGDGVVDYDLWGQGTLVTVSS
VL: ELDMTQTPASVEVAVGGTVTIKCQASQNIYSNLAWYQQKPGQRPKLLIYGASTLASGVPSRFKGSGSGTEYTLTINGVQAADAATYYCQQGFSSSNVDNVFGGGTEVVVKR
For B3, in assay [2], the binding result is reported as “binds”.

B4: M0707 (Fab, V domains shown)
VH: QQQLEESGGGLVTPGTPLTLTCTVSGIDLSSYAMGWVRQAPGKGLEWIGTINDGGSAFYASWVKGRFTISRTSTTVDLKITSPTAEDTATYFCAKTYGTNGDVYWGYFNLWGQGTLVTVSS
VL: ELVMTQTPASVSEPVGGTVTIKCQASQSIGSNLAWYQQKPGQPPKLLIYYESILASGVPSRFSGSGSGTEYTLTISGAQADDAATYYCQQGYSSSNILNAFGGGTEVVVKR
As to B4, the binding result in assay [2] was “binds”.

B5: M0702 (Fab, V domains shown)
VH: QEQLEESGGGLVTPGTPLTLTCTASGFSLSSYAMIWVRQAPGKGLEWIGTINDGGTAFYANWVKGRFTISRTSTTVDLKMTSPTTEDTATYFCARAYGSNGDVYWGYVNLWGQGTLVTVSS
VL: ELVMTQTPASVSEPVGGTVTIKCQASQSIGSNLAWYQQKPGQPPKLLIYAAANLASGVSSRFKGSRSGTEYTLTISGVQAADAATYYCQQGYSSSNVANVFGGGTELEILR
On to B5, for which the “EC50 (read off the curve)” value in assay [2] was ~0.6 nM.

B6: M0766 (Fab, V domains shown)
VH: PEQLEESGGGLVTPGGVLTLTCTASGFSFSSYGVNWVRQAPGKGLEWIGFIFGDGTTYYANWAKGRFTISKTSTTVDLKMTSPTTEDTATYFCARDGYGGYDYIINLWGQGTLVTVSS
VL: AQVLTQTPASVSAAVGGTVSISCQSSQSVVNNNWLAWYQQKPGQPPKLLIYKASTLESGVPSRFKGSGSGTQFTLTISGVQADDAATYYCLGEFSCSSADCHAFGGGTELEILR
As to B6, in assay [7], the binding result is recorded as “binds”.
